B1: TPR t1 (parent)
chain: GACCAAUCUGCCCUCAGAGCUCGAGAACAUCUUCGGAUGCAGAGGAGGCAGGCUUCGGUGGCGCGAUAGCGCCAACGUCCUCAACCUCCAAUGCAUCCCACCACAUGAUGAUGCCUGAAGAGCCUUGGUUUUUUG

The text below walks through data of the RNAGym collection of RNA variant scans (doi:10.1073/pnas.2313332121).

This series covers variants of B1. Description: polymerase ribozyme fitness, log enrichment relative to wild type (log ratio); higher = more active; in vitro selection for triplet polymerase activity. The procedure, abridged:
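Mutant libraries of both subunits of a heterodimeric triplet polymerase ribozyme were PCR-built, transcribed, and selected once in triplicate, with frozen incubation at −7 °C and capture of gel-excised extended constructs on streptavidin beads before RT-PCR. Illumina sequencing of input and output libraries was filtered to genotypes with ≥10 input reads and ≥1 read per output. Fitness is the logarithm of genotype enrichment over wild-type enrichment, using inverse-variance-weighted replicate averages. The logarithm is base 2.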
Take GACCAAUCUUCCCUCAGAGCUCGAGAACAUCUUCGGAUGCAGAGGAGGCAGGCUUCGGUGGCGCGAUAGCGCCAACGUCCUCUACCUCCAAUGCAUCCCACCACAUGAUGAUGCCUGAAGAGCCUUGGUUUUUUG: the “polymerase ribozyme fitness (log ratio)” value was -0.308.
To GACCAAUCUUCCCUCAGAGCUCGAGAACAUCUUCGGAUGCAGAGGCGGCAGGCUUCGGUGGCGCGAUAGCGCCUACGUCCUCAACCUCCAAUGCAUCCCACCACAUGAUGAUGCCUGAAGAGCCUUCGUUUUUUG belongs -2.03; to GACCAAUCUUCCCUCAGAGCUCGAGAACAUCUUCGGAUGCAGAGGAGGCAGGCUUAGGUGGCGCGAUAGCGCCAACGUCCUCAACCUCCAAUGCAUCCCACCACAUGAUGAUGCCUGAAGAGCCUUGGUUUUUUG, 0.154.
To GACCAAUCUUCCCUCAGAGCUCGAGAACAUCUUCGGAUGCAGAGGAGGCUGGCUUCGGUGGCGCGAUAGCGCCAACGUCCUCAACCUCCAAUGCAUCCCACCACAUGAUGAUGCCUGAAGAGCCUUGGUUUUUUG belongs -1.65; to GACCAAUCUUCCAUCAGAGCUCGAGAACAUCUUCGGAUGCAGAGGAGGCAGGCUUCGGUGGCGCGAUAGCGCCAACGUCCUCAACCUCCAAUGCAUCCCACCAUAUGAUGAUGCCUGAAGAGCCUUGGUUUUUUG, -0.097.
Under GACCAAUCUUCCCUCAGAGCUGGAGAACAUCUUCGGAUGCAGAGGGGGCAGGCUUCGGUGGCGCGAUAGCGCCAAAGUCCUCAACCUCCAAUGCAUCCCACCACAUGAUGAUGCCUGUAGAGCCUUGGUUUUUUG stands -4.37; under GACCAAUCUUCCCUCAGAGCUCGAGAACAUCUUCGGAUGAAGAGGAGGCAGGCUUCGGUGGCGUGAUAGCGCCAACGUCCCCAACCUCCAAUGCAUCCCACCACAUGAUGAUGCCUGAAGAGCCUUGGUUUUUUG, -2.46.
For GACCAAUCUUCCCUUAGAGCUCGAGAACAUCUUCGGAUGCAGAGGAGGCAGGCUUAGGUGGCGCGAUAGCGGCAACGUCCUCAACCUCCAAUGCAUCCCACCACAUGAUGAUGCCUGAAAAGCCUUGGUUUUUUG, the “polymerase ribozyme fitness (log ratio)” value was -0.935.
To GACCAAUCUUCACUCAGAGCUCGAGAACAUCUUCGGAUGCAGAGGAGGCAGGCUUCGGUGGCGCGAUAGCUCCAACGACUUCAACCUCCAAUGCAUCCCACCACAUGAUGAUGGCUGAAGAGCCUUGGUUUUUUG belongs -3.23; to GACCAAUCUUCUCUCAGAGCUCGAGAACAUUUUCGGAUGCAGAGGAGGCAGGCUUCGGUGGCGCGAUAGCGUCAACGUCCUCAAACUCCAAUGCAUCCCACCACAUGAUGAUGCCUGAAGAACCUUGGUUUUUUG, -5.23; to GACCAAUCUUCCCUCAGAGCUGGAGAACAUCUUCGGAUGCAGAGGAGGCCGGCUUCGGUGGCGCGAUAGCGCCAACGUCCUCAACCUCCAAUGCAUCCCACCACAUGAUGAUGCCUGGAGAGCCUUGGUUUUUUG, -5.56.
Consider GACCAAUCUUCCCUCAGUGCUCGAGAACAUCUUCGGAUGAAGAGGAGGCAGGCUUGGGUGGCGCGAUAGCGCCAACGUCCUCAACCUCCAAUGCAUCCCACCACAUGAUGAUGCCUGAAGAGCCUUGGUUUUUUG, for which the “polymerase ribozyme fitness (log ratio)” value was -4.94.
On to GACCAAUCUUUCCUCAGAGCUCGAGAACAUCUUCGGAUGCAGAGGAGGCAGGCUUCGGUGGCGCGAUAGCGCCAACGUCCUCAACCUCCAAUGCAUCCCACCACAUGAUGAUGCCUGAAGAGCCUUGGUUUUUUG, for which the “polymerase ribozyme fitness (log ratio)” value came out at 0.0495.
Under GACCAAUCUUCCCUUAGAGCUCGAGAACAUCUUCGGAUGCAGAGGAGGCAGGCUUCGGUGGCGCGAUAGCGCCAACGUCCUCAACCUCCACUGCAUCCCACCACAUGAUGAUGCCUGAAGAGCCAUGGUUUUUUG stands -3.89.
Under GACCAAUCUUCCCUCAGAGCUCGAGAUCAUCUUCGGAUGCAGAGGAGGCAGGCUUCGGUGGCGCGAUAGCGCCAAGGUCCUCAACCUCCAAUGCAUCCCACCACAUGAGGAUGCCUGAAGAGCCUUGGUUUUUUG stands -5.77.
Turning to GACCAAUCUUCCCUCAGAGCUCGAGAACAUCUUCGGAUGCAGAGGAGGCAGGGUUCGGUGGCGCGAUAGCGCCAACGACCUCAACCUCCAAUGCAUCCCACCACAUGAUGAUGCCUGAAGAGCCUUGGUUUUUUG, the “polymerase ribozyme fitness (log ratio)” value was -2.99.
Turning to GACCAAUCUUCCCUCAGAGCUCGAGAACAUCUUCGGAUGCAGAGGAGGCAGGCUUAGGUGGCGCGAUAGCGCCAACGUCCUCAACCUCCAAUGCAUCCCACCACAUGAUGAAGCCUGAAGAGCCUUGGUUUUUUG, the “polymerase ribozyme fitness (log ratio)” value amounted to 0.0795.
For the variant GACCAAUCUUCACUCAGAGCUCGAGAACAUCUUCGGAUGCAGAGGAGGUAGGCUUCGGUGGCGCGAUAGCGCCAACGUCCUCAACCUCCAAUGCAUCCCACCACAUGAUGAUGCCUGUAGAGCCUUGGUUGUUUG, the “polymerase ribozyme fitness (log ratio)” value is -1.34.
Under GACCAAUCUUCCCUCAGAGCUCGAGAACAUCUUCGGAUGCUGAGGAGGCAGGCUUCGGUGGCGCGAUAGCGGCAACGUCCUCAACCUCCAAUGCAUCCCAUCACAUGAUAAUGCCUGAAGAGCCUUGGUUUUUUG stands -4.92; under GACCAAUCUUGCCUCAGAGCUCGAGAACCUCUUCGGAUGCAGAGGAGGCAGGAUUCGGUGGCGCGAUAGCGCCUACGUCCUCAACCUCCAAUGCAUCCCACCACAUGAUGAUGCCUGAAGAGCCUUGGUUUUUUG, -3.94; under GACCAAUCUUCCUUCAGAGCUCGAGAACAUCUUCGGAUGCAGAGGAGGCAGGCUUCGGUGUCGCGAUAGCGCCAACGUCCUCAACCUCCAAUGCAUCCCACCACAUGAUGAUGCCUGAAGAGCCUUGGUUUUUUG, -0.215.
